According to article PMC4546058, “The Energetics of Streptococcal Enolase Octamer Formation: The Quantitative Contributions of the Last Eight Amino Acids at the Carboxy-Terminus” (PLoS ONE, 2015):

Target: the molecule itself
Assay: AUC; sedimentation velocity, Beckman XL-I, 20°C, 30 000-37 000 RPM, TME-SO4 (50 mM Tris, 1 mM MgSO4, 0.1 mM EDTA, 44 mN H2SO4, pH 7.4); c(s) in Sedfit; octamer to 8 monomers

B1: Str enolase DB (Streptococcus pyogenes enolase, sequence of accession number NP_268959.1) (enzyme, UniProt P69949 1-435, looked up)
chain: MSIITDVYAREVLDSRGNPTLEVEVYTESGAFGRGMVPSGASTGEHEAVELRDGDKSRYLGLGTQKAVDNVNNIIAEAIIGYDVRDQQAIDRAMIALDGTPNKGKLGANAILGVSIAVARAAADYLEVPLYTYLGGFNTKVLPTPMMNIINGGSHSDAPIAFQEFMIMPVGAPTFKEGLRWGAEVFHALKKILKERGLVTAVGDEGGFAPKFEGTEDGVETILKAIEAAGYEAGENGIMIGFDCASSEFYDKERKVYDYTKFEGEGAAVRTSAEQVDYLEELVNKYPIITIEDGMDENDWDGWKVLTERLGKRVQLVGDDFFVTNTEYLARGIKENAANSILIKVNQIGTLTETFEAIEMAKEAGYTAVVSHRSGETEDSTIADIAVATNAGQIKTGSLSRTDRIAKYNQLLRIEDQLGEVAQYKGIKSFYNLKK
notes: PDB 3ZLH is the same protein with E77K; also called Streptococcal enolase; source: stored in saturated ammonium sulfate, dialyzed against TME-SO4
  stoichiometry N: 8
